{"source": "patent US6548060", "about": "(dated 2003)", "binders": {"B1": {"name": "N-terminal 236 aa extension of human glutaminyl-tRNA synthetase (other, UniProt P47897 1-236, looked up)", "chain": "MAALDSLSLFTSLGLSEQKARETLKNSALSAQLREAATQAQQTLGSTIDKATGILLYGLASRLRDTRRLSFLVSYIASKKIHTEPQLSAALEYVRSHPLDPIDTVDFERECGVGVIVTPEQIEEAVEAAINRHRPQLLVERYHFNMGLLMGEARAVLKWADGKMIKNEVDMQVLHLLGPKLEADLEKKFKVAKARLEETDRRTAKDVVENGETADQTLSLMEQLRGEALKFHKPGE", "notes": "range 1-236; LexA fusion in yeast two-hybrid; GST fusion (pGEX4T-2), purified, in the in vitro pull-down; Myc-tagged from pcDNA3 in 293 cells for co-IP; also called QRS-N; LexA-QRS-N"}, "B2": {"name": "C-terminal 137 aa peptide of human Daxx (G604-D740) (other, UniProt Q9UER7 604-740, looked up)", "chain": "GAGMVSSTSFNGGVSPHNWGDSGPPCKKSRKEKKQTGSGPLGNSYVERQRSVHEKNGKKICTLPSPPSPLASLAPVADSSTRVDSPSHGLVTSSLCIPSPARLSQTPHSQPPRPGTCKTSVATQCDPEEIIVLSDSD", "notes": "range 604-740; B42 fusion in yeast two-hybrid; His fusion (pET28a), purified, in the in vitro pull-down; also called Daxx-C; B42-Daxx-C"}}, "key": {"[1]": {"target": "T1, human Daxx, full-length (human, UniProt Q9UER7 1-740)", "T1 construct": "range 1-740; Expressed from pcDNA3 in 293 cells for co-IP; also called B42-Daxx; pcDNA3-Daxx", "assay": "summary of the experiments in the legend of FIG. 1"}, "[2]": {"target": "T2, ASK1 (apoptosis signal-regulating kinase), full-length (UniProt Q99683 1-1374, limits assumed)", "T2 construct": "Full-length; LexA fusion in yeast two-hybrid; HA-tagged (pcDNA3-HA-ASK1, gift of Dr. Ichijo) in 293 cells for co-IP and the MBP kinase assay; Flag-tagged in the GST-SEK1 kinase assay; also called ASK1-F; HA-ASK1", "T2 sequence (looked up)": "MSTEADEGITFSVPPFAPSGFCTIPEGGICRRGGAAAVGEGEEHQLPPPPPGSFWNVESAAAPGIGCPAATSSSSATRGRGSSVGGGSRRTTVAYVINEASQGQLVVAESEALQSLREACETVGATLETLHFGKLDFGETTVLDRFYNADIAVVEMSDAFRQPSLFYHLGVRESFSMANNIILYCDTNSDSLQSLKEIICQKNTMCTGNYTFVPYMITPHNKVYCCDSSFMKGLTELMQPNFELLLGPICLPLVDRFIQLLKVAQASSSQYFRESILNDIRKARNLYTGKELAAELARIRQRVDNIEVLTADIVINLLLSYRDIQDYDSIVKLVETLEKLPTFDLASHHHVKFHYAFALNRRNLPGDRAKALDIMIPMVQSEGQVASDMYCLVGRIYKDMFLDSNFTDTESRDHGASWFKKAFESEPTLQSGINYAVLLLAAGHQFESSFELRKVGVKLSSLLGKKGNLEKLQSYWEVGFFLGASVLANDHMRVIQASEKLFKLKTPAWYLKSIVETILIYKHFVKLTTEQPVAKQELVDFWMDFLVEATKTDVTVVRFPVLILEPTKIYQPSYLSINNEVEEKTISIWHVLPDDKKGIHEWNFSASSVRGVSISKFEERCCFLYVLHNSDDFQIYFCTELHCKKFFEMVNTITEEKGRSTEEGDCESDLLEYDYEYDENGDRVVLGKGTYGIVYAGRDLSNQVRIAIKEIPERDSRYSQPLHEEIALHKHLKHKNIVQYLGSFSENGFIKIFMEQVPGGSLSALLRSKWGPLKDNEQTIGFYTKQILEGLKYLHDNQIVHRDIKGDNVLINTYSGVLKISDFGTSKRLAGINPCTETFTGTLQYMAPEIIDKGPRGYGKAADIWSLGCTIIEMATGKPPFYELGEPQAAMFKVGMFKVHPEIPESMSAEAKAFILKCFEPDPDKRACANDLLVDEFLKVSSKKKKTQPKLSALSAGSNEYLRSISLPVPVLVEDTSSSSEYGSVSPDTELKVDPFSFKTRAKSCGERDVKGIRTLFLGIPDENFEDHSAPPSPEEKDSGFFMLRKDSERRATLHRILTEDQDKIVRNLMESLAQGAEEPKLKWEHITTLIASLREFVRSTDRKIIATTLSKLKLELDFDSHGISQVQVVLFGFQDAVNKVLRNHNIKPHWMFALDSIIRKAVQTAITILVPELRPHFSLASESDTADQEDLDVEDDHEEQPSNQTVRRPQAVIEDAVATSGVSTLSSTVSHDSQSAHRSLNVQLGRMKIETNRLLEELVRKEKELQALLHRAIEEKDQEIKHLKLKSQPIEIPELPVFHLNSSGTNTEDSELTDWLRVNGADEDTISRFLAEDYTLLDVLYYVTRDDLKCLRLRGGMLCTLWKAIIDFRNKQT", "assay": "co-immunoprecipitation with anti-HA antibody from 293 cells (FIG. 3A)", "procedure": "Figure 3: FIG. 3. Interaction of QRS-C and ASK1-N. A. The cDNA (4 ug each) encoding QRS-F. -N or -C (Myc tagged) cloned in pcDNA3 was transfected into 293 cells in 100-mm dishes with 0.5 ug pcDNA3-HA-ASK1 (a kind gift of Dr. Ichijo, Tokyo university, Japan). Co-immunoprecipitation between HA-ASK1 and QRS was carried out as described previously (11) using anti-HA antibody (Santa Cruz). The precipitated proteins were resolved in 10% SDS-polyacrylamide gel, and the presence of QRS-F and -N, and -C were detected by immunoblotting with anti-QRS (17) and Myc (9E10, Boehringer Mannheim) antibodies, respectively. -B. pcDNA3-QRS-F (4 ug) was co-transfected into 293 cells with pcDNA3-HA-ASK1-F (full length) or -N (N-terminal 649 aa) (4 ug each). The cells were harvested after 24 hrs and the ASK1 peptides were precipitated with anti-HA antibody and co-precipitation of QRS was determined by immunoblotting with anti-QRS antibody. […]\nSince ASK1 is the immediate downstream kinase of Daxx, we tested whether QRS also interacts with ASK1. The interaction of the two proteins was determined by co-immunoprecipitation. […] Since the N-terminal 649 aa peptide was previously determined to be a regulatory domain interacting with Daxx, (FIG. 1), we tested whether QRS interacts with ASK1-N or -C. […]"}, "[3]": {"target": "T3, human glutaminyl-tRNA synthetase, full-length (human, UniProt P47897 1-775)", "T3 construct": "range 1-775; Fused to LexA in the yeast two-hybrid assay (pEG202); also called QRS; QRS-F", "T3 sequence (looked up)": "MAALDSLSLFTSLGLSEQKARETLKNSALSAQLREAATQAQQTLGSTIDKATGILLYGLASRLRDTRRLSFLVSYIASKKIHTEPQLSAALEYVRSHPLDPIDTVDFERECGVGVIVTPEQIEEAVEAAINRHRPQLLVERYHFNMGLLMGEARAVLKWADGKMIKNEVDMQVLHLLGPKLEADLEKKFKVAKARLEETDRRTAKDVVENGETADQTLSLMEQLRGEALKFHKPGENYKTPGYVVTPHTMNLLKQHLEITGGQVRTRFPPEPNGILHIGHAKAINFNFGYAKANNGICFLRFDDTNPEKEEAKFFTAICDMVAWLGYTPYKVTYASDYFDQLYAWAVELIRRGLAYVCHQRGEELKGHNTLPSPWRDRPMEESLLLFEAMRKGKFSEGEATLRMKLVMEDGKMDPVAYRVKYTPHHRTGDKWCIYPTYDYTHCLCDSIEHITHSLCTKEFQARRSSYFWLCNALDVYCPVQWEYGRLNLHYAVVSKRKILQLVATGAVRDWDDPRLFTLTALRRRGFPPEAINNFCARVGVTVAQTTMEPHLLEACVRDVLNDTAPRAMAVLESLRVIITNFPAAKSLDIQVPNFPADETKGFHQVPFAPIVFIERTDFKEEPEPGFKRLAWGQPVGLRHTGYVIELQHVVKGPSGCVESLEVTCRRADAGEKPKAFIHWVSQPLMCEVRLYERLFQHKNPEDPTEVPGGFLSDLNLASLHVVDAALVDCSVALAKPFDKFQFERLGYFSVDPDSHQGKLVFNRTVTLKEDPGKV", "assay": "yeast two-hybrid (FIG. 2A)", "procedure": "(§1) Figure 2: FIG. 2. Interaction of QRS-N and Daxx-C. A. (upper panel) The interaction of QRS and Daxx was mapped by yeast two hybrid analysis. The full-length (F), N-terminal 236 aa (N) and C-terminal 539 aa (C) peptides of QRS, and the full-length ASK1 were fused to LexA (DNA-binding protein). […] The pairs of LexA and B42 hybrid proteins were expressed in a yeast tester strain and the positive interactions were determined by the formation of blue colonies as described previously (8). […] Daxx-C and QRS-N were expressed as His (pET28a, Novagen) and GST (pGEX4T-2, Amersham Pharmacia Biotech) fusion proteins, respectively and purified following the manufacturer's instructions. The purified His-Daxx-C (5 ug) was mixed with GST or GST-QRS-N (5 ug) at 4° C. for 30 min in 20 mM sodium phosphate buffer, pH 7.8, containing 500 mM NaCl. The GST proteins were precipitated with the GST resin (10 ul) and the precipitated proteins were eluted and resolved by 12% SDS-polyacrylamide gel electrophoresis and stained with Coomasie blue. Figure 2:\n(§2) Human Daxx was originally identified to be associated to Fas to mediate apoptotic signal ( 10) to its downstream kinase, ASK1 (11). The activation of ASK1 then results in activation of Jun N-terminal kinase (JNK) and p38 for cellular apoptosis (12). The interaction between QRS and Daxx was further refined by yeast two hybrid analysis. […]"}, "[4]": {"target": "T4, N-terminal 610 aa peptide of Daxx (human, UniProt Q9UER7 1-610)", "T4 construct": "range 1-610; Yeast two-hybrid construct; 610 aa overlaps Daxx-C (604-740) by a few residues as printed; also called Daxx-N", "T4 sequence (Q9UER7 1-610 limits assumed)": "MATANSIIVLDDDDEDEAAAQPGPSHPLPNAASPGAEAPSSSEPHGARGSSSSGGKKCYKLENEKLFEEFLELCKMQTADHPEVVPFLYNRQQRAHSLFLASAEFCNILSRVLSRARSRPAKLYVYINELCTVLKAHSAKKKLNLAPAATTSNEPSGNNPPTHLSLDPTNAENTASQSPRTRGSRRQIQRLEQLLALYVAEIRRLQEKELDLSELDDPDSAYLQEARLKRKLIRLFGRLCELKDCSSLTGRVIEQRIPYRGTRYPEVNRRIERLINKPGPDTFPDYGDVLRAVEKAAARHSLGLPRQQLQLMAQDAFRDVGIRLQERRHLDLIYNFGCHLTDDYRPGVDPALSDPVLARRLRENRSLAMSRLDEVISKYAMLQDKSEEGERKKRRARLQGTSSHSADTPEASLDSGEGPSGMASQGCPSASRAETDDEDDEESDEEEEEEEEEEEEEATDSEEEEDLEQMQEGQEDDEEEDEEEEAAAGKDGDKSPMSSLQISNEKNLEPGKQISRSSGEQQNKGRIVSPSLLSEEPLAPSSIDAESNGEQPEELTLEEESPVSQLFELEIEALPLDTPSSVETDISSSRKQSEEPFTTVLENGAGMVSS", "assay": "yeast two-hybrid (FIG. 2A lower panel)", "procedure": "as §1, with “Interaction” for “Figure 2: FIG. 2. Interaction”\nas §2"}, "[5]": {"target": "B1", "assay": "in vitro pull-down, purified His-Daxx-C with GST-QRS-N on GST resin, Coomassie-stained gel (FIG. 2B)", "procedure": "as §1\nThe interaction between the Daxx-C and QRS-N was confirmed by in vitro pull down experiment. Daxx-C and QRS-N were expressed as His and GST fusion proteins, respectively. The purified two fusion proteins were then mixed and precipitated with the GST resin. Daxx-C was co-precipitated with QRS-N, confirming the direct interaction between the two molecules (FIG. 2B)."}}, "data": [{"binder": "B1", "values": [{"measurement": "binding result", "setting": "[1]", "value": "binds"}, {"measurement": "binding result", "setting": "[2]", "value": "no binding"}]}, {"binder": "B2", "values": [{"measurement": "binding result", "setting": "[3]", "value": "binds"}, {"measurement": "binding result", "setting": "[4]", "value": "binds"}, {"measurement": "binding result", "setting": "[5]", "value": "binds"}]}]}
